Experiment [1] addresses SNF2H (UniProt O60264). Description: HA immunoprecipitation and mass spectrometry. Conditions: PC3 cells; average of three independent experiments; parent: est. 35; read off a plot.
Experiment [2] concerns the target DHX9 (UniProt Q08211). Briefly: HA immunoprecipitation and mass spectrometry. Particulars: PC3 cells; average of three independent experiments; parent: est. 32; read off a plot.

The values below come from article PMC10130768.

Chain of UniProt Q08211 (Q08211 whole entry): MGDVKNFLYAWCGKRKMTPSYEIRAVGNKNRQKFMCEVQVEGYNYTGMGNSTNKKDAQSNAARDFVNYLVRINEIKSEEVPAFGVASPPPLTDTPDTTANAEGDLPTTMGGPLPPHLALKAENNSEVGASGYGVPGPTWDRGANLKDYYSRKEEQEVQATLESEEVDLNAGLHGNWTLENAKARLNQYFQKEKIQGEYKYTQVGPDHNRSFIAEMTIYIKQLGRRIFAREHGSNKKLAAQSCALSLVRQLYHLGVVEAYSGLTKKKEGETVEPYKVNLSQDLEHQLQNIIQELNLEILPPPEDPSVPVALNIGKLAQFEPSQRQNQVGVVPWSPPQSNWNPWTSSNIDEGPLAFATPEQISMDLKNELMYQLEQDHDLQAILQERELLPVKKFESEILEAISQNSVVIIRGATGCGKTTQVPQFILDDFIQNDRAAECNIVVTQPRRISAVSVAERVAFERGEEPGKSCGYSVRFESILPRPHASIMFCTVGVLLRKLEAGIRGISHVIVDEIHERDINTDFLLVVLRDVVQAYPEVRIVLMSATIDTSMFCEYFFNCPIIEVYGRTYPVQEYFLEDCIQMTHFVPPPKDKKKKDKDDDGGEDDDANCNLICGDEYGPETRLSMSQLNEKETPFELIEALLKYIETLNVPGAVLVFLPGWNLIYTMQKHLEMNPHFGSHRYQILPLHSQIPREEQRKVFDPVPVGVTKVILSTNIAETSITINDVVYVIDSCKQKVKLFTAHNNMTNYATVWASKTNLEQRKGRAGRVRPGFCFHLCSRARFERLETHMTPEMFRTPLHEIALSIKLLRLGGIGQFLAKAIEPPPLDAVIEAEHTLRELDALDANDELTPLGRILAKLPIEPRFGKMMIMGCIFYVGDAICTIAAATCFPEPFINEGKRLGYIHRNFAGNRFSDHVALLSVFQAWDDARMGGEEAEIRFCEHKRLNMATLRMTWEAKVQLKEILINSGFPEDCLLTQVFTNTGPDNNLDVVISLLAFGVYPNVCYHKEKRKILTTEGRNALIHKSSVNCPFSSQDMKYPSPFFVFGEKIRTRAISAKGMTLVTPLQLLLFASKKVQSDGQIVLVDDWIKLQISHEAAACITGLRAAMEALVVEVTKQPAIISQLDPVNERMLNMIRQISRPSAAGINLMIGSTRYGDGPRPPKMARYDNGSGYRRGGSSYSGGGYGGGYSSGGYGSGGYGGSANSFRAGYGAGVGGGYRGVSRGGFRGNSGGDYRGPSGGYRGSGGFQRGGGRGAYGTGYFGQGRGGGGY
Chain of UniProt O60264 (O60264 whole entry): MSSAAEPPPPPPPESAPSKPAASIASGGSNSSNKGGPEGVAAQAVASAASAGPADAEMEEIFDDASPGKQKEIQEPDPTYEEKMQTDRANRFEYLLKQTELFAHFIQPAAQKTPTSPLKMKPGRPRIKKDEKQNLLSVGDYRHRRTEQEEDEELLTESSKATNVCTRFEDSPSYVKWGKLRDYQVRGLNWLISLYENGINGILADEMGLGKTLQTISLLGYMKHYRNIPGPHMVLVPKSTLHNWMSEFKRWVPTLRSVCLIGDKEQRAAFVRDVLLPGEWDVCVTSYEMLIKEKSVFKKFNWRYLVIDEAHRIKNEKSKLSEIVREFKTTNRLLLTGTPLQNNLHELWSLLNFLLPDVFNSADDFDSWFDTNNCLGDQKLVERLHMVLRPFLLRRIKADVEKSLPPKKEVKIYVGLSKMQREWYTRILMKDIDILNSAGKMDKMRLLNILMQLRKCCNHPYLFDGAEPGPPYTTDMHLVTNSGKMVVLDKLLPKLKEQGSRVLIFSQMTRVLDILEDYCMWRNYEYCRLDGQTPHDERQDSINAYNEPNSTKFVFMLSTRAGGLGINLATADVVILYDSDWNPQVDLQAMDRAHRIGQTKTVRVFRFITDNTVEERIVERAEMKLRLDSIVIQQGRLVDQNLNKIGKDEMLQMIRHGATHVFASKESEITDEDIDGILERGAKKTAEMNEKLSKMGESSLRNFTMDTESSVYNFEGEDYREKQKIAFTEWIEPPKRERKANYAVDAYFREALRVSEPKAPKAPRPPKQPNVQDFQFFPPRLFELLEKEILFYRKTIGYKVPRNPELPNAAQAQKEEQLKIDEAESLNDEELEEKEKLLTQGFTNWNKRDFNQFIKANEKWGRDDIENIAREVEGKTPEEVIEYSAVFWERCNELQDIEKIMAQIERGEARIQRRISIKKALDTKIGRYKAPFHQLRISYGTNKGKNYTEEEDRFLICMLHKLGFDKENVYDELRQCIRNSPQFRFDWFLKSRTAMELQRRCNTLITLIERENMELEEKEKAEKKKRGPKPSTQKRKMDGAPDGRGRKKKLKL

In the case of “HA-FLAG-tagged mouse WT BAZ2A (from UniProt Q91YE5) W531G; Y532A”, the results for the response (peptides number) in experiment [1] and in experiment [2] were 32 and 36, respectively.
